{"source": "patent US20110207221", "test_in_all_cases": "cell_activity", "key": {"[1]": {"tested_on": "ZFN 10342 (BAK) (synthetic)", "details": "CHO-K1; BAK deletion, two ZFN pairs"}, "[2]": {"tested_on": "ZFN 10317 (BAK del. A) (synthetic)", "details": "CHO-K1; BAK deletion A, two ZFN pairs"}, "[3]": {"tested_on": "ZFN 10344 (BAK) (synthetic)", "details": "CHO-K1; BAK deletion, two ZFN pairs"}, "[4]": {"tested_on": "ZFN 11177 (BAK del. B) (synthetic)", "details": "CHO-K1; BAK deletion B, two ZFN pairs"}, "[5]": {"tested_on": "ZFN 16247 (POU5F1) (synthetic)", "details": "K562; two ZFN pairs co-transfected"}, "[6]": {"tested_on": "ZFN 16245 (POU5F1) (synthetic)", "details": "K562; two ZFN pairs co-transfected, deletion only with both"}, "[7]": {"tested_on": "ZFN 16246 (POU5F1) (synthetic)", "details": "K562; two ZFN pairs co-transfected"}, "[8]": {"tested_on": "ZFN 16248 (POU5F1) (synthetic)", "details": "K562; two ZFN pairs co-transfected"}, "[9]": {"tested_on": "ZFN 10311 (BAK) (synthetic)", "details": "CHO-K1; BAK deletion, two ZFN pairs"}, "[10]": {"tested_on": "ZFN 11183 (BAK) (synthetic)", "details": "CHO-K1; BAK deletion, two ZFN pairs"}}}
{"sequence": "GCGGCCAGGCCAAGGCAGACTTTCTGAC (double strand) [BAK site of 10342]", "values": [{"measurement": "activity (% cells with deletion)", "setting": "[1]", "value": 1}]}
{"sequence": "GCCAGGATTAGGAGGATGGGATTTGGCA (double strand) [BAK site of 10317]", "values": [{"measurement": "activity (% cells with deletion)", "setting": "[2]", "value": 1}]}
{"sequence": "ATCAGGAAGAGGCTGGGTGTCACAGCGT (double strand) [BAK site of 10344]", "values": [{"measurement": "activity (% cells with deletion)", "setting": "[3]", "value": 1}]}
{"sequence": "AGGATTAGGAGGATGGGATTTGGCACTG (double strand) [BAK site of 11177]", "values": [{"measurement": "activity (% cells with deletion)", "setting": "[4]", "value": 1}]}
{"sequence": "ATGTAACAAAGGACTACTCTTCCCCCAG (double strand) [POU5F1 site of 16247]", "values": [{"measurement": "activity (% cells with deletion)", "setting": "[5]", "value": 4}]}
{"sequence": "AAGCTGGTCTGGTGGCTAGGTAGATCCT (double strand) [POU5F1 site of 16245]", "values": [{"measurement": "activity (% cells with deletion)", "setting": "[6]", "value": 4}]}
{"sequence": "GGGCTCTGGAAGGCCCACTTCAGGGCCT (double strand) [POU5F1 site of 16246]", "values": [{"measurement": "activity (% cells with deletion)", "setting": "[7]", "value": 4}]}
{"sequence": "ATGAGTCAGTGAACAGGGAATGGGTGAA (double strand) [POU5F1 site of 16248]", "values": [{"measurement": "activity (% cells with deletion)", "setting": "[8]", "value": 4}]}
{"sequence": "CAGCACGGGCCCAGGGTGGGGCAGAAAG (double strand) [BAK site of 10311]", "values": [{"measurement": "activity (% cells with deletion)", "setting": "[9]", "value": 1}]}
{"sequence": "CACGGGCCCAGGGTGGGGCAGAAAGCCC (double strand) [BAK site of 11183]", "values": [{"measurement": "activity (% cells with deletion)", "setting": "[10]", "value": 1}]}
